Source: patent US20170290876A1 (Novartis, published 2017)
Where a chain is given by its changes, count along the chain named. In names and notes the source's numbering stands.

B1: NVS4 heavy chain variant D31N (Fab, V domains shown)
VH: EVQLVESGGGLVQPGGSLRLSCTASGFSLTNYYYMTWVRQAPGKGLEWVGFIDPDDDPYYATWAKGRFTISRDNSKNTLYLQMNSLRAEDTAVYYCAGGDHNSGWGLDIWGQGTLVTVSS
VL: EIVMTQSPSTLSASVGDRVIITCQASEIIHSWLAWYQQKPGKAPKLLIYLASTLASGVPSRFSGSGSGAEFTLTISSLQPDDFATYYCQNVYLASTNGANFGQGTKLTVLK
notes: CDR variant of NVS4
B2: NVS4 heavy chain variant D31S + Y32K (Fab, V domains shown)
VH: B1 VH with N31S, Y32K
VL: B1 VL
notes: CDR variant of NVS4
B3: LC5T (Fab, V domains shown)
VH: B1 VH with N31D
VL: B1 VL with E27Q, H30K, L50Q, S56K
notes: Light chain CDR variant LC5 with tagged NVS4 heavy chain
B4: HC1.2T (Fab, V domains shown)
VH: B1 VH with N31S, D55Q, D56N, D57N
VL: B1 VL
notes: Tagged heavy chain CDR variant HC1.2 with NVS4 light chain
B5: NVS4 light chain variant S95K (Fab, V domains shown)
VH: B1 VH with N31D
VL: B1 VL with S95K
notes: CDR variant of NVS4
B6: LC1T (Fab, V domains shown)
VH: B1 VH with N31D
VL: B1 VL with E27Q, L50Q, S56K
notes: Light chain CDR variant LC1 of NVS4 with tagged NVS4 heavy chain
B7: NVS4 heavy chain variant N102K (Fab, V domains shown)
VH: B1 VH with N31D, N102K
VL: B1 VL
notes: CDR variant of NVS4
B8: HC2T (Fab, V domains shown)
VH: B1 VH with D55Q, D56N, D100N
VL: B1 VL
notes: Tagged heavy chain CDR variant HC2 with NVS4 light chain
B9: NVS4 heavy chain variant D56N (Fab, V domains shown)
VH: B1 VH with N31D, D56N
VL: B1 VL
notes: CDR variant of NVS4
B10: NVS4 light chain variant H30K (Fab, V domains shown)
VH: B1 VH with N31D
VL: B1 VL with H30K
notes: CDR variant of NVS4
B11: HC1T (Fab, V domains shown)
VH: B1 VH with N31S, D55Q, D56N, D57N, D100S, D108N
VL: B1 VL
notes: Tagged heavy chain CDR variant HC1 with NVS4 light chain
B12: LC3T (Fab, V domains shown)
VH: B1 VH with N31D
VL: B1 VL with E27Q, I28K, L50Q, T53K, S56K, T96R
notes: Light chain CDR variant LC3 with tagged NVS4 heavy chain
B13: HC1.1T (Fab, V domains shown)
VH: B1 VH with N31S, D55Q, D56N, D57N, D108N
VL: B1 VL
notes: Tagged heavy chain CDR variant HC1.1 with NVS4 light chain
B14: NVS4 heavy chain variant D55N (Fab, V domains shown)
VH: B1 VH with N31D, D55N
VL: B1 VL
notes: CDR variant of NVS4
B15: NVS4 light chain variant T53K (Fab, V domains shown)
VH: B1 VH with N31D
VL: B1 VL with T53K
notes: CDR variant of NVS4
B16: LC4T (Fab, V domains shown)
VH: B1 VH with N31D
VL: B1 VL with E27Q, I28K, L50Q, S56K
notes: Light chain CDR variant LC4 with tagged NVS4 heavy chain
B17: NVS4 heavy chain variant D31S (Fab, V domains shown)
VH: B1 VH with N31S
VL: B1 VL
notes: CDR variant of NVS4
B18: NVS4 light chain variant I28K (Fab, V domains shown)
VH: B1 VH with N31D
VL: B1 VL with I28K
notes: CDR variant of NVS4
B19: NVS4 heavy chain variant Y59H (Fab, V domains shown)
VH: B1 VH with N31D, Y59H
VL: B1 VL
notes: CDR variant of NVS4
B20: NVS4 heavy chain variant H101K (Fab, V domains shown)
VH: B1 VH with N31D, H101K
VL: B1 VL
notes: CDR variant of NVS4
B21: NVS4 heavy chain variant D55N + D56N (Fab, V domains shown)
VH: B1 VH with N31D, D55N, D56N
VL: B1 VL
notes: CDR variant of NVS4
B22: NVS4 light chain variant T96R (Fab, V domains shown)
VH: B1 VH with N31D
VL: B1 VL with T96R
notes: CDR variant of NVS4
B23: NVS4 heavy chain variant D55Q + D56N (Fab, V domains shown)
VH: B1 VH with N31D, D55Q, D56N
VL: B1 VL
notes: CDR variant of NVS4
B24: NVS4 heavy chain variant D108Q (Fab, V domains shown)
VH: B1 VH with N31D, D108Q
VL: B1 VL
notes: CDR variant of NVS4
B25: HC7T (Fab, V domains shown)
VH: B1 VH with N31K, D53K, D55K, D57K, Y60K
VL: B1 VL
notes: Tagged heavy chain CDR variant HC7 with NVS4 light chain
B26: HC3T (Fab, V domains shown)
VH: B1 VH with D55Q, D56N, D57N, D100N
VL: B1 VL
notes: Tagged heavy chain CDR variant HC3 with NVS4 light chain
B27: NVS4 heavy chain variant D55Q (Fab, V domains shown)
VH: B1 VH with N31D, D55Q
VL: B1 VL
notes: CDR variant of NVS4
B28: NVS4 light chain variant Y92F (Fab, V domains shown)
VH: B1 VH with N31D
VL: B1 VL with Y92F
notes: CDR variant of NVS4
B29: HC4T (Fab, V domains shown)
VH: B1 VH with D55Q, D56N, D100N, D108N
VL: B1 VL
notes: Tagged heavy chain CDR variant HC4 with NVS4 light chain
B30: HC6T (Fab, V domains shown)
VH: B1 VH with D55Q, D56N, D57Q, D100N, D108N
VL: B1 VL
notes: Tagged heavy chain CDR variant HC6 with NVS4 light chain
B31: HC8T (Fab, V domains shown)
VH: B1 VH with N31K, D53K, D56K, D57K, Y59K
VL: B1 VL
notes: Tagged heavy chain CDR variant HC8 with NVS4 light chain
B32: NVS4 heavy chain variant D100N + H101K (Fab, V domains shown)
VH: B1 VH with N31D, D100N, H101K
VL: B1 VL
notes: CDR variant of NVS4
B33: NVS4 heavy chain variant D108N (Fab, V domains shown)
VH: B1 VH with N31D, D108N
VL: B1 VL
notes: CDR variant of NVS4
B34: NVS4 heavy chain variant Y34H (Fab, V domains shown)
VH: B1 VH with N31D, Y34H
VL: B1 VL
notes: CDR variant of NVS4
B35: NVS4 heavy chain variant Y59F (Fab, V domains shown)
VH: B1 VH with N31D, Y59F
VL: B1 VL
notes: CDR variant of NVS4
B36: LC2T (Fab, V domains shown)
VH: B1 VH with N31D
VL: B1 VL with E27Q, I28K, L50Q, T53K, S56K
notes: Light chain CDR variant LC2 with tagged NVS4 heavy chain
B37: NVS4 heavy chain variant D100N (Fab, V domains shown)
VH: B1 VH with N31D, D100N
VL: B1 VL
notes: CDR variant of NVS4
B38: NVS4 heavy chain variant D57N (Fab, V domains shown)
VH: B1 VH with N31D, D57N
VL: B1 VL
notes: CDR variant of NVS4

Target: T1, human VEGF (human, UniProt P15692 207-395, biotinylated (site not stated))
T1 construct: Biotinylated human VEGF generated internally; also called hVEGF; hVEGF-biotin
T1 sequence: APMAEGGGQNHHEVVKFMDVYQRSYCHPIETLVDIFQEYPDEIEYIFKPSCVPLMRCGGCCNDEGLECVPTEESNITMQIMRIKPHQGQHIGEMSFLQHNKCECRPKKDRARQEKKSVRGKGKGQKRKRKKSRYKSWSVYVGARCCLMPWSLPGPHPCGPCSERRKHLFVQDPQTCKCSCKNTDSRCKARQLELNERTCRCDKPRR
Experiment: Biacore SPR, hVEGF
Experimental: At first, individual CDR residues were substituted and the affinity for hVEGF was measured by Biacore as described below. […] HC8T, and HC9T and the affinity of the resulting peptide-tagged Fab for both HA and hVEGF was measured by Biacore as described below (Table 17).
Affinity of optimized HA-binding peptide tags for HA and human VEGF were measured by Biacore. […] In order to determine target kinetics, two different formats were utilized. […] The second format is an anti-fab capture method in which the fab protein samples are captured and the target proteins flowed over at various concentrations.
The sample compartment which includes the analytes, ligands, and regeneration buffer, is kept at 15° C. All other running conditions were carried out at either 25° C. or 37° C. in 1×HBSE+P buffer. […] Data was collected at 10 Hz and analyzed using the Biacore T200 Evaluation Software (GE Healthcare®). This program uses a global fitting analysis method for the determination of rate and affinity constants for each interaction.

Binder | Kd [nM] | koff [s⁻¹] | kon [M⁻¹ s⁻¹]
B1 | 0.00409 | 4.7e-05 | 1.15e+07
B2 | 0.185 | 0.000958 | 5.18e+06
B3 | 0.00435 | 0.000588 | 1.35e+08
B4 | 0.0414 | 0.00456 | 1.1e+08
B5 | 0.0819 | 0.000482 | 5.88e+06
B6 | 0.00123 | 7.3e-05 | 5.95e+07
B7 | 0.0169 | 4.84e-05 | 4.77e+06
B8 | 0.0111 | 0.000862 | 7.8e+07
B9 | 0.00765 | 4.84e-05 | 6.33e+06
B10 | 0.0355 | 0.000149 | 4.22e+06
B11 | 0.0883 | 0.00852 | 9.65e+07
B12 | 0.0012 | 0.00016 | 1.34e+08
B13 | 0.0779 | 0.00854 | 1.1e+08
B14 | 0.103 | 0.000654 | 6.35e+06
B15 | 0.00282 | 1.3e-05 | 4.6e+06
B16 | 0.00149 | 0.000135 | 9.1e+07
B17 | 0.00886 | 4.67e-05 | 5.27e+06
B18 | 0.00534 | 3e-05 | 5.62e+06
B19 | 0.0563 | 0.000119 | 2.11e+06

Binder | Kd [nM] | koff [s⁻¹] | kon [M⁻¹ s⁻¹]
B20 | 0.593 | 0.000773 | 1.3e+06
B21 | 0.108 | 0.000951 | 8.82e+06
B22 | 0.00244 | 1.37e-05 | 5.6e+06
B23 | 0.0909 | 0.000656 | 7.22e+06
B24 | 0.00668 | 4.54e-05 | 6.8e+06
B25 | 0.554 | 0.186 | 3.37e+08
B26 | 0.08 | 0.00898 | 1.12e+08
B27 | 0.0823 | 0.000541 | 6.57e+06
B28 | 0.0415 | 7.84e-05 | 1.89e+06
B29 | 0.00993 | 0.000912 | 9.18e+07
B30 | 0.0499 | 0.00624 | 1.25e+08
B31 | 0.948 | 0.0026 | 2.74e+06
B32 | 0.368 | 0.000363 | 983000
B33 | 0.00985 | 5.73e-05 | 5.82e+06
B34 | 0.15 | 0.000445 | 2.97e+06
B35 | 0.0311 | 0.000104 | 3.34e+06
B36 | 0.00133 | 0.000109 | 8.18e+07
B37 | 0.00549 | 2.57e-05 | 4.68e+06
B38 | 0.132 | 0.0014 | 1.06e+07
